In patent publication US20190000984A1:

Target: IL-4R (interleukin-4 receptor) (UniProt P24394)
Assay: cell-based or functional assay

attenuation of IL-4R activity against the control constructs (STAT6-luciferase): > 10%
B1: anti-IL-4R:anti-CD63 conjugate (streptavidin-conjugated anti-IL-4R antibody combined 1:1 with biotinylated anti-CD63 antibody MEM-259) (protein, part only; not given: anti-CD63 antibody and constant regions, part only)
VH: EVQLVESGGGVVQPGRSLRLSCVASGFTFSDYGMHWVRQAPGKGLEWVAVIWYDGSIKYFRDSVKGRFTISRDNSKNTLYLQMNSLRVEDTAHYYCAKESSSWYFYHGLDVWGQGTMVTVSS
VL: EIVMTQSPLSLPVSPGEPASISCRSNQSLLHSNGNNYLAWYLQKPGQSPHLLIYLGSNRASGVPDRFSGSGSGTDFTLKISRVEAGDVGTYFCMQSLQAPPFTFGPGTKVEIKR
modifications: antibody conjugated to streptavidin (site not stated)
